From paper PMC10281804, “The structural basis of the talin–KANK1 interaction that coordinates the actin and microtubule cytoskeletons at focal adhesions” (Open Biology, 2023)

Target: T1, Mouse talin-1 R7R8 (mouse, UniProt P26039 1359-1659)
T1 construct: talin-1, mouse, rod domains R7 and R8 (R7R8 double domain module); 15N-labelled for the NMR experiments; also called talin R7R8; R7R8 module; source: expressed and purified as described previously [9]
Assay: fluorescence polarisation; BODIPY-TMR coupled peptide at 0.5 µM in PBS pH 7.4, 5 mM TCEP, 0.05% Triton X-100; one-site total and nonspecific binding model
Settings: both partners purified

T1 sequence (P26039 1359-1659): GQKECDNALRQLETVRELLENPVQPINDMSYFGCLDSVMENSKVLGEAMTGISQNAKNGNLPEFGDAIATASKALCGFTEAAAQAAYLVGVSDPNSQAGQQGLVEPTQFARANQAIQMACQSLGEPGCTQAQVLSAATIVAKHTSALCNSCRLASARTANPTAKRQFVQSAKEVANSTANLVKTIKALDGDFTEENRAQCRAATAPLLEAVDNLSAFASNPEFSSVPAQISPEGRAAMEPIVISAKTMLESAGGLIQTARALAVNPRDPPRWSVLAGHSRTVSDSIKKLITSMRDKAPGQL

Kd: 1.2 µM
B1: KANK1 KN motif peptide (for FP), BODIPY-TMR coupled (peptide)
peptide: PYFVETPYGFQLDLDFVKYVDDIQKGNTIKKC
modifications: BODIPY-TMR coupled
notes: KANK1 KN motif, mouse residues 30-60; extra C-terminal cysteine printed beyond the stated limits 30-60; also called WT-KANK1; source: synthetic peptide, bought: GLBiochem (Shanghai)
